# Assay results reported in CN111748032A (JIANGSU PROVINCIAL CENTER FOR DISEASE CONTROL AND …, dated 2020).
# Target: 重组SARS-CoV2核蛋白(NP) (SARS-CoV-2, UniProt P0DTC9 1-419)
# Experiment: double-antibody sandwich lateral flow strip, paired with JS08, recombinant NP
row,Binder,检测限 (detection limit)
1,"JS05 (antibody, V domains shown) VH: EVQLLESGGGVVQPGRSLRLSCAASGFIFSSYGMHWVRQAPGKGLEWVAVIWYDGSNKYYADSVKGRFTISRDNSKNTLYLQMNSLRAEDTAVYYCARDLRGPTGWTFDYWGQGTLVTVSS VL: ENVLTQSPATLSLSPGERATLSCRASQSVSNYLAWYQQRPGQAPRLLIYDSSNRATGIPARFSGSGSGTDFTLTISSLEPEDFAVYYCQHRSNWKITFGQGTRLEIK",< 2 ng/mL
2,"JS12 (antibody, V domains shown) VH: EVQLLESGGGVVQPGRSLRLSCAASGFTFSSYGMHWVRQAPGKGLEWVAVIWYDGSNKYYADSVKGRFTISRDNSKNTLYLQMNSLRAEDTAVYYCARDGSGSYYWGSLDYWGQGTLVTVSS VL: ENVLTQSPATLSLSPGERATLSCRASQSVSSYLAWYQQKPGQAPRLLIYGASNRATGIPARFSGSGSGTDFTLTISSLEPEDFAVYYCQQRSNWPWTFGQGTKVEIK",< 2 ng/mL
3,"JS01 (antibody, V domains shown) VH: QVQLVESGAEVKKPGSSVKVSCKASGGTFSSYAISWVRQAPGQGLEWMGGIIPIFGTANYAQKFQGRVTITADESTSTAYMELSSLRSEDTAVYYCARGGWRSSGYHDYSYYGMDVWGQGTTVTVSS VL: not shown",< 2 ng/mL
4,"JS13 (antibody, V domains shown) VH: QVQLVQSGAEVKKPGSSVKVSCKASGGTFSSYAISWVRQAPGQGLEWMGGIIPIFGTANYAQKFQGRVTITADESTSTAYMELSSLRSEDTAVYYCARGGWVICSSTSCYTKYSYYGMDVWGQGTTVTVSS VL: QSVLTQPPSVSAAPGQKVTISCSGSSSNIGNNYVSWYQQLPGTAPKLLIYDNNKRPSGIPDRFSGSKSGTSATLGITGLQTGDEADYYCGTWDSSLIARLFGGGTKLTVL",< 2 ng/mL
5,"JS14 (antibody, V domains shown) VH: EVQLLESGGGVVQPGRSLRLSCAASGFTFSSYGMHWVRQAPGKGLEWVAVIWYDGSNKYYADSVKGRFTISRDNSKNTLYLQMNSLRAEDTAVYYCARDGSGSYYWGSLDYWGQGTLVTVSS VL: not shown",< 2 ng/mL
